Measured values taken from US20210324061A1 (ARGENX BVBA, published 2021).

Molecular target: T1, human GARP-TGF-β1 complex (recombinant complex of human GARP and latent human TGF-β1) (human, UniProt Q14392 20-627; P01137 30-278; P01137 279-390)
T1 construct: also called huGARP-TGF-β1; hGARP-TGF-β1
Assay: SPR Biacore T200, CM5 chip coated with GARP-TGF-β1 complex at 150 RU
Description: (§1) The affinity of all antibodies (including 39B6-A) for GARP-TGF-β1 was tested by BiacoreT200 using a CM5 chip coated with GARP-TGF-β1 complex at 150RU (Table 17) or coated with the antibodies at 200RU (Table 17)

T1 sequence (Q14392 20-627 limits assumed, chain 1 of 3): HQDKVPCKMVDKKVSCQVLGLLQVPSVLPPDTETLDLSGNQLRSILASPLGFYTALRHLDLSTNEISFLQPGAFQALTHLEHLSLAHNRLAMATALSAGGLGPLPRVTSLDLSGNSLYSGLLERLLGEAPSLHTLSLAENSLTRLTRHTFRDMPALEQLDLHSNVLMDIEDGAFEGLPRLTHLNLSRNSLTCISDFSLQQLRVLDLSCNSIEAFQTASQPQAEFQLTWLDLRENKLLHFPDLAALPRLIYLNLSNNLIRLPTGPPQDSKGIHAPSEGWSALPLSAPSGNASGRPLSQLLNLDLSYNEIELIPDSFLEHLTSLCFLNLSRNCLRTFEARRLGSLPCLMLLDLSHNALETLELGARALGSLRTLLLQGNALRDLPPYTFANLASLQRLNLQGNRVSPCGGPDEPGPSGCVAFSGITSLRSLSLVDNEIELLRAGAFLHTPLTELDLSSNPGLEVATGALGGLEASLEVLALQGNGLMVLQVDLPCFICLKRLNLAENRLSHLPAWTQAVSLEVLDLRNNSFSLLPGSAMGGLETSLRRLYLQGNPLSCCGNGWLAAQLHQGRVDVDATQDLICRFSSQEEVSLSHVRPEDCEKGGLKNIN
T1 sequence (P01137 30-278 limits assumed, chain 2 of 3): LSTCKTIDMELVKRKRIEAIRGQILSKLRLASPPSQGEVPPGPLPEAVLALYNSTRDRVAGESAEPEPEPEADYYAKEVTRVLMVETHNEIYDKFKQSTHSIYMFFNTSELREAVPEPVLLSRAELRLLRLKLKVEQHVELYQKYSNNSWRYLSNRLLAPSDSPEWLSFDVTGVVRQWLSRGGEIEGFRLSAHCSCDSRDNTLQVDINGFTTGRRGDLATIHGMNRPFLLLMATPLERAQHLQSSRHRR
T1 sequence (P01137 279-390 limits assumed, chain 3 of 3): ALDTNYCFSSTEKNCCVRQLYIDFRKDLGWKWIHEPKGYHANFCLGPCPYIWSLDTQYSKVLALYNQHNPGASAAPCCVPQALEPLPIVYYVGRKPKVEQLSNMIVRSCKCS

| Binder | Fold-difference (KD vs 39B6-A) | Kd |
| --- | --- | --- |
| 39B6-A IgG4 S228P (antibody, V domains shown, 39B6 with G55A in HCDR2, in the human IgG4 S228P backbone; also called 39B6-ANE) VH: QVQLVQPGAEVRKPGASVKVSCKASGYRFTSYYIDWVRQAPGQGLEWMGRIDPEDAGTKYAQKFQGRVTMTADTSTSTVYVELSSLRSEDTAVYYCARNEWETVVVGDLMYEYEYWGQGTLVTVSS VL: DIQMTQSPSSLSASVGDRVTITCQASQSISSYLAWYQQKPGQAPKILIYGASRLKTGVPSRFSGSGSGTSFTLTISSLEPEDAATYYCQQYASVPVTFGQGTKVEIKR | 1 fold | 0.991 nM |
| 39B6-AEE IgG4 S228P (antibody, V domains shown) VH: QVQLVQPGAEVRKPGASVKVSCKASGYRFTSYYIDWVRQAPGQGLEWMGRIDPEDAGTKYAQKFQGRVTMTADTSTSTVYVELSSLRSEDTAVYYCAREEWETVVVGDLMYEYEYWGQGTLVTVSS VL: DIQMTQSPSSLSASVGDRVTITCQASQSISSYLAWYQQKPGQAPKILIYGASRLKTGVPSRFSGSGSGTSFTLTISSLEPEDAATYYCQQYASVPVTFGQGTKVEIKR | 5.8 fold | 5.79 nM |

Molecular target: T1, human GARP-TGF-β1 complex (recombinant …)
Assay: SPR Biacore T200, CM5 chip coated with the antibody at 200 RU, complex in solution
Description: as §1

| Binder | Fold-difference (KD vs 39B6-A) | Kd |
| --- | --- | --- |
| 39B6-A IgG4 S228P (antibody, V domains shown, 39B6 with G55A in HCDR2, in the human IgG4 S228P backbone; also called 39B6-ANE) VH: QVQLVQPGAEVRKPGASVKVSCKASGYRFTSYYIDWVRQAPGQGLEWMGRIDPEDAGTKYAQKFQGRVTMTADTSTSTVYVELSSLRSEDTAVYYCARNEWETVVVGDLMYEYEYWGQGTLVTVSS VL: DIQMTQSPSSLSASVGDRVTITCQASQSISSYLAWYQQKPGQAPKILIYGASRLKTGVPSRFSGSGSGTSFTLTISSLEPEDAATYYCQQYASVPVTFGQGTKVEIKR | 1 fold | 1.33 nM |
| 39B6-AEE IgG4 S228P (antibody, V domains shown) VH: QVQLVQPGAEVRKPGASVKVSCKASGYRFTSYYIDWVRQAPGQGLEWMGRIDPEDAGTKYAQKFQGRVTMTADTSTSTVYVELSSLRSEDTAVYYCAREEWETVVVGDLMYEYEYWGQGTLVTVSS VL: DIQMTQSPSSLSASVGDRVTITCQASQSISSYLAWYQQKPGQAPKILIYGASRLKTGVPSRFSGSGSGTSFTLTISSLEPEDAATYYCQQYASVPVTFGQGTKVEIKR | 76.7 fold | 102 nM |

Molecular target: T1, human GARP-TGF-β1 complex (recombinant …)
Assay: SPR, IgG1 on human GARP-TGF-β1 complex
Description: The five germlined clones reformatted to human IgG1 were produced by transient transfection in HEK 293E cells.

| Binder | Kd | fold difference (KD vs 17H5) |
| --- | --- | --- |
| 39B6 human IgG1 (antibody, V domains shown, Full human IgG1, made in HEK 293E cells) VH: QVQLVQPGAEVRKPGASVKVSCKASGYRFTSYYIDWVRQAPGQGLEWMGRIDPEDGGTKYAQKFQGRVTMTADTSTSTVYVELSSLRSEDTAVYYCARNEWETVVVGDLMYEYEYWGQGTLVTVSS VL: DIQMTQSPSSLSASVGDRVTITCQASQSISSYLAWYQQKPGQAPKILIYGASRLKTGVPSRFSGSGSGTSFTLTISSLEPEDAATYYCQQYASVPVTFGQGTKVEIK | 0.167 nM | 1.7 fold |
| 39B10 human IgG1 (antibody, V domains shown, Full human IgG1, made in HEK 293E cells) VH: EVQLVQSGAELKKPGASVKVSCKASGYRFTSYYIDWVRQAPGQGLEWMGRIDPEEGGTKYAQKFQGRVTMTADTSTSTAYMELSSLRSEDTAVYYCARNEWETVVVGDLMYEYEYWGQGTLVTVSS VL: DIQMTQSPSSLSASLGDRVTITCQASQSISSYLAWYQQKPGQAPNILIYGASRLKTGVPSRFSGSGSGTDFTLTISGLEAEDFATYYCQQYASVPVTFGQGTKVEIK | 0.262 nM | 2.6 fold |
| 38F2 human IgG1 (antibody, V domains shown, Full human IgG1, made in HEK 293E cells) VH: QVQLVQPGAELKKPGASVKVSCKASGYRFTSYYIDWVRQAPGQGLEWMGRIDPEDAGTKYAQKFQGRVTFTADTSTSTVYVELSSLRSEDTAVYYCARNEWETVVVGDLTYEYEYWGQGTLVTVSS VL: DIQMTQSPSSLSASVGDRVTITCQASQSISSYLAWYQQKPGKAPNLLIYGASRLKTEVPSRFSGSGSGTDFTLISGLEPEDAGTYYCQQYASVPVTFGQGTKVEIK | 0.48 nM | 4.8 fold |
| 39A12 human IgG1 (antibody, V domains shown, Full human IgG1, made in HEK 293E cells; also called 39A12_T) VH: EVQLVQPGAEVKKPGASVKVSCKASGYRFTSYYIDWVRQAPGQGLEWMGRIDPEEGGTKYAQKFQGRVTFTADTSTSTVYVELSSLRSEDTAVYYCARNEWETVVVGDLTYEYEYWGQGTLVTVSS VL: DIQMTQSPSSLSASVGDRVTITCQASQSISSYLAWYQQKPGQAPKILIYGASRLKTGVPSRFSGSGSGTDFTLTISSLQAEDFATYYCQQYASVPVTFGQGTKVEIK | 0.505 nM | 5.1 fold |
| 39A5 human IgG1 (antibody, V domains shown, Full human IgG1, made in HEK 293E cells) VH: QVQLVQPGAELRNPGASVKVSCKASGYRFTSYYIDWVRQAPGQGLEWMGRIDPEDGGTKYAQKFQGRVTFTRDTSTSTVYMELSSLRSEDTAVYYCARNEWETVVVGDLMYEYEYWGQGTLVT VL: DIQMTQSPSSLSASLGDRVTITCQASQSISSYLAWYQQKPGQAPKLLIYGASRLKTGVPSRFSGSGSGTDFTLTISSLQPEDAATYYCQQYASVPVTFGQGTKVEIK | 0.298 nM | 3 fold |

Molecular target: T1, human GARP-TGF-β1 complex (recombinant …)
Assay: SPR, Fab in periplasmic extract, off-rate on human GARP-TGF-β1 complex
Description: Masterplates were picked from selection round 2, 3, 4, 5 and 6 (48 clones for each round). Periplasmic extracts were prepared and off-rates were determined by SPR. All clones were DNA-sequenced and amino acid sequences were deduced thereof. The off-rates of these clones were measured as periplasmic extracts on SPR, and compared to the off-rate of Fab 17H5.

| Binder | koff |
| --- | --- |
| Fab 38F2 (Fab, V domains shown, Germlined Fab with human CH1 and Cκ (pCB13), tested as periplasmic extract) VH: QVQLVQPGAELKKPGASVKVSCKASGYRFTSYYIDWVRQAPGQGLEWMGRIDPEDAGTKYAQKFQGRVTFTADTSTSTVYVELSSLRSEDTAVYYCARNEWETVVVGDLTYEYEYWGQGTLVTVSS VL: DIQMTQSPSSLSASVGDRVTITCQASQSISSYLAWYQQKPGKAPNLLIYGASRLKTEVPSRFSGSGSGTDFTLISGLEPEDAGTYYCQQYASVPVTFGQGTKVEIK | 0.000408 s⁻¹ |
| Fab 39B6 (Fab, V domains shown, Germlined Fab with human CH1 and Cκ (pCB13), tested as periplasmic extract) VH: QVQLVQPGAEVRKPGASVKVSCKASGYRFTSYYIDWVRQAPGQGLEWMGRIDPEDGGTKYAQKFQGRVTMTADTSTSTVYVELSSLRSEDTAVYYCARNEWETVVVGDLMYEYEYWGQGTLVTVSS VL: DIQMTQSPSSLSASVGDRVTITCQASQSISSYLAWYQQKPGQAPKILIYGASRLKTGVPSRFSGSGSGTSFTLTISSLEPEDAATYYCQQYASVPVTFGQGTKVEIK | 0.000105 s⁻¹ |
| Fab 39B10 (Fab, V domains shown, Germlined Fab with human CH1 and Cκ (pCB13), tested as periplasmic extract) VH: EVQLVQSGAELKKPGASVKVSCKASGYRFTSYYIDWVRQAPGQGLEWMGRIDPEEGGTKYAQKFQGRVTMTADTSTSTAYMELSSLRSEDTAVYYCARNEWETVVVGDLMYEYEYWGQGTLVTVSS VL: DIQMTQSPSSLSASLGDRVTITCQASQSISSYLAWYQQKPGQAPNILIYGASRLKTGVPSRFSGSGSGTDFTLTISGLEAEDFATYYCQQYASVPVTFGQGTKVEIK | 0.000236 s⁻¹ |
| Fab 39A12 (Fab, V domains shown, Germlined Fab from the phage library with human CH1 and Cκ (pCB13), tested as periplasmic extract) VH: EVQLVQPGAEVKKPGASVKVSCKASGYRFTSYYIDWVRQAPGQGLEWMGRIDPEEGGTKYAQKFQGRVTFTADTSTSTVYVELSSLRSEDTAVYYCARNEWETVVVGDLTYEYEYWGQGTLVTVSS VL: DIQMTQSPSSLSASVGDRVTITCQASQSISSYLAWYQQKPGQAPKILIYGASRLKTGVPSRFSGSGSGTDFTLTISSLQAEDFATYYCQQYASVPVTFGQGTKVEIK | 0.000606 s⁻¹ |
| Fab 39A5 (Fab, V domains shown, Germlined Fab with human CH1 and Cκ (pCB13), tested as periplasmic extract) VH: QVQLVQPGAELRNPGASVKVSCKASGYRFTSYYIDWVRQAPGQGLEWMGRIDPEDGGTKYAQKFQGRVTFTRDTSTSTVYMELSSLRSEDTAVYYCARNEWETVVVGDLMYEYEYWGQGTLVT VL: DIQMTQSPSSLSASLGDRVTITCQASQSISSYLAWYQQKPGQAPKLLIYGASRLKTGVPSRFSGSGSGTDFTLTISSLQPEDAATYYCQQYASVPVTFGQGTKVEIK | 0.00019 s⁻¹ |
